In patent US6855515B1, “Autoantigenic fragments, methods and assays” (Merck & Co., Inc., priority 1998, dated 2005):

B1: SRP-72: autoantigen (protein)
chain: ASGGSGGVSVPALWSEVNRYGQNGDFTRALKTVNKILQINKDDVTALHCKVVCLIQNGSFKEALNVINTHTKVLANNSLSFEKAYCEYRLNRIENALKTIESANQQTDKLKELYGQVLYRLERYDECLAVYRDLVRNSQDDYDEERKTNLSAVVAAQSNWEKVVPENLGLQEGTHELCYNTACALIGQGQLNQAMKILQKAEDLCRRSLSEDTDGTEEDPQAELAIIHGQMAYILQLQGRTEEALQLYNQIIKLKPTDVGLLAVIANNIITINKDQNVFDSKKKVKLTNAEGVEFKLSKKQLQAIEFNKALLAMYTNQAEQCRKISASLQSQSPEHLLPVLIQAAQLCREKQHTKAIELLQEFSDQHPENAAEIKLTMAQLKISQGNISKACLILRSIEELKHKPGMVSALVTMYSHEEDIDSAIEVFTQAIQWYQNHQPKSPAHLSLIREAANFKLKYGRKKEAISDLQQLWKQNPKDIHTLAQLISAYSLVDPEKAKALSKHLPSSDSMSLKVDVEALENSAGATYIRKKGGKVTGDSQPKEQGQGDLKKKKKKKKGKLPKNYDPKVTPDPERWLPMRERSYYRGRKKGKKKDQIGKGTQGATAGASSELDASKTVSSPPTSPRPGSAATVSASTSNIIPPRHQKPAGAPATKKKQQQKKKKGGKGGW
B2: Alanyl tRNA synthetase (PL-12): autoantigen targeted in autoimmune myositis (protein)
chain: MDSTLTASEIRQRFIDFFKRNEHTYVHSSATIPLDDPTLLFANAGMNQFKPIFLNTIDPSHPMAKLSRAANTQKCIRAGGKHNDLDDVGKDVYHHTFFEMLGSWSFGDYFKELACKMALELLTQEFGIPIERLYVTYFGGDEAAGLEADLECKQIWQNLGLDDTKILPGNMKDNFWEMGDTGPCGPCSEIHYDRIGGRDAAHLVNQDDPNVLEIWNLVFIQYNREADGILKPLPKKSIDTGMGLERLVSVLQNKMSNYDTDLFVPYFEAIQKGTGARPYTGKVGAEDADGIDMAYRVLADHARTITVALADGGRPDNTGRGYVLRRILRRAVRYAHEKLNASRGFFATLVDVVVQSLGDAFPELKKDPDMVKDIINEEEVQFLKTLSRGRRILDRKIQSLGDSKTIPGDTAWLLYDTYGFPVDLTGLIAEEKGLVVDMDGFEEERKLAQLKSQGKGAGGEDLIMLDIYAIEELRARGLEVTDDSPKYNYHLDSSGSYVFENTVATVMALRREKMFVEEVSTGQECGVVLDKTCFYAEQGGQIYDEGYLVKVDDSSEDKTEFTVKNAQVRGGYVLHIGTIYGDLKVGDQVWLFIDEPRRRPIMSNHTATHILNFALRSVLGEADQKGSLVAPDRLRFDFTAKGAMSTQQIKKAEEIANEMIEAAKAVYTQDCPLAAAKAIQGLRAVFDETYPDPVRVVSIGVPVSELLDDPSGPAGSLTSVEFCGGTHLRNSSHAGAFVIVTEEAIAKGIRRIVAVTGAEAQKALRKAESLKKCLSVMEAKVKAQTAPNKDVQREIADLGEALATAVIPQWQKDELRETLKSLKKVMDDLDRASKADVQKRVLEKTKQFIDSNPNQPLVILEMESGASAKALNEALKLFKMHSPQTSAMLFTVDNEAGKITCLCQVPQNAANRGLKASEWVQQVSGLMDGKGGGKDVSAQATGKNVGCLQEALQLATSFAQLRLGDVKN
B3: threonyl tRNA synthetase: autoantigen in autoimmune myositis (protein)
chain: MFEEKASSPSGKMGGEEKPIGAGEEKQKEGGKKKNKEGSGDGGRAELNPWPEYIYTRLEMYNILKAEHDSILAEKAEKDSKPIKVTLPDGKQVDAESWKTTPYQIACGISQGLADNTVIAKVNNVVWDLDRPLEEDCTLELLKFEDEEAQAVYWHSSAHIMGEAMERVYGGCLCYGPPIENGFYYDMYLEEGGVSSNDFSSLEALCKKIIKEKQAFERLEVKKETLLAMFKYNKFKCRILNEKVNTPTTTVYRCGPLIDLCRGPHVRHTGKIKALKIHKNSSTYWEGKADMETLQRIYGISFPDPKMLKEWEKFQEEAKNRDHRKIGRDQELYFFHELSPGSCFFLPKGAYIYNALIEFIRSEYRKRGFQEVVTPNIFNSRLWMTSGHWQHYSENMFSFEVEKELFALKPMNCPGHCLMFDHRPRSWRELPLRLADFGVLHRNELSGALTGLTRVRRFQQDDAHIFCAMEQIEDEIKGCLDFLRTVYSVFGFSFKLNLSTRPEKFLGDIEVWDQAEKQLENSLNEFGEKWELNSGDGAFYGPKIDIQIKDAIGRYHQCATIQLDFQLPIRFNLTYVSHDGDDKKRPVIVHRAILGSVERMIAILTENYGGKWPFWLSPRQVMVVPVGPTCDEYAQKVRQQFHDAKFMADIDLDPGCTLNKKIRNAQLAQYNFILVVGEKEKISGTVNIRTRDNKVHGERTISETIERLQQLKEFRSKQAEEEF
B4: glycyl tRNA synthetase: autoantigen in autoimmune myositis (protein)
chain: MDGAGAEEVLAPLRLAVRQQGDLVRKLKEDKAPQVDVDKAVAELKARKRVLEAKELALQPKDDIVDRAKMEDTLKRRFFYDQAFAIYGGVSGLYDFGPVGCALKNNIIQTWRQHFIQEEQILEIDCTMLTPEPVLKTSGHVDKFADFMVKDVKNGECFRADHLLKAHLQKLMSDKKCSVEKKSEMESVLAQLDNYGQQELADLFVNYNVKSPITGNDLSPPVSFNLMFKTFIGPGGNMPGYLRPETAQGIFLNFKRLLEFNQGKLPFAAAQIGNSFRNEISPRSGLIRVREFTMAEIEHFVDPSEKDHPKFQNVADLHLYLYSAKAQVSGQSARKMRLGDAVEQGVINNTVLGYFIGRIYLYLTKVGISPDKLRFRQHMENEMAHYACDCWDAESKTSYGWIEIVGCADRSCYDLSCHARATKVPLVAEKPLKEPKTVNVVQFEPSKGAIGKAYKKDAKLVMEYLAICDECYITEMEMLLNEKGEFTIETEGKTFQLTKDMINVKRFQKTLYVEEVVPNVIEPSFGLGRIMYTVFEHTFHVREGDEQRTFFSFPAVVAPFKCSVLPLSQNQEFMPFVKELSEALTRHGVSHKVDDSSGSIGRRYARTDEIGVAFGVTIDFDTVNKTPHTATLRDRDSMRQIRAEISELPSIVQDLANGNITWADVEARYPLFEGQETGKKETIEE
B5: PMS1: autoantigen (protein)
chain: MKQLPAATVRLLSSSQIITSVVSVVKELIENSLDAGATSVDVKLENYGFDKIEVRDNGEGIKAVDAPVMAMKYYTSKINSHEDLENLTTYGFRGEALGSICCIAEVLITTRTAADNFSTQYVLDGSGHILSQKPSHLGQGTTVTALRLFKNLPVRKQFYSTAKKCKDEIKKIQDLLMSFGILKPDLRIVFVHNKAVIWQKSRVSDHKMALMSVLGTAVMNNMESFQYHSEESQIYLSGFLPKCDADHSFTSLSTPERSFIFINSRPVHQKDILKLIRHHYNLKCLKESTRLYPVFFLKIDVPTADVDVNLTPDKSQVLLQNKESVLIALENLMTTCYGPLPSTNSYENNKTDVSAADIVLSKTAETDVLFNKVESSGKNYSNVDTSVIPFQNDMHNDESGKNTDDCLNHQISIGDFGYGHCSSEISNIDKNTKNAFQDISMSNVSWENSQTEYSKTCFISSVKHTQSENGNKDHIDESGENEEEAGLENSSEISADEWSRGNILKNSVGENIEPVKILVPEKSLPCKVSNNNYPIPEQMNLNEDSCNKKSNVIDNKSGKVTAYDLLSNRVIKKPMSASALFVQDHRPQFLIENPKTSLEDATLQIEELWKTLSEEEKLKYEEKATKDLERYNSQMKRAIEQESQMSLKDGRKKIKPTSAWNLAQKHKLKTSLSNQPKLDELLQSQIEKRRSQNIKMVQIPFSMKNLKINFKKQNKVDLEEKDEPCLIHNLRFPDAWLMTSKTEVMLLNPYRVEEALLFKRLLENHKLPAEPLEKPIMLTESLFNGSHYLDVLYKMTADDQRYSGSTYLSDPRLTANGFKIKLIPGVSITENYLEIEGMANCLPFYGVADLKEILNAILNRNAKEVYECRPRKVISYLEGEAVRLSRQLPMYLSKEDIQDIIYRMKHQFGNEIKECVHGRPFFHHLTYLPETT

Molecular target: T1, granzyme B (Homo sapiens, UniProt P10144)
T1 construct: Some of these preparations were used for the further purification of granzyme B (Tschopp, 1994); endogenous in cells; host or cells: YT cells (human NK cell line), cytoplasmic granules
T1 sequence (P10144 21-247): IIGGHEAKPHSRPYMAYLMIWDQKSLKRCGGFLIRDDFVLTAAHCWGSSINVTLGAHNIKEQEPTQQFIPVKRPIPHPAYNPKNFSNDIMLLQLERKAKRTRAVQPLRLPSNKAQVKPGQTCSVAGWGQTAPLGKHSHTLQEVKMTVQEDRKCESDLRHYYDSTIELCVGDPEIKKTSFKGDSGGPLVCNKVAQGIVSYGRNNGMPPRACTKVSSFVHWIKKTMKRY
Assay: Susceptibility of autoantigens to cleavage by purified granzyme B (HeLa lysate immunoblot or immunoprecipitates)
Assay type: biochemical
Conditions: in vitro
Protocol: To determine whether susceptibility to direct cleavage by granzyme B was an isolated feature of PARP, NuMA and DNA-PKcs shown above, or whether it was a more general feature of autoantigens, a variety of well-defined autoantigens selected from across the spectrum of systemic autoimmune diseases were tested for susceptibility to cleavage by purified granzyume B. The efficiency of cleavage of the substrates by purified granzyme B was also noted (Table 3). Initially, a series of autoantibodies of well-defined specificity were used to immunoblot lysates of HeLa cells that had been incubated in vitro with or without granzyme B. Lysates were pre-treated with iodoacetamide (IAA) to prevent interference by endogenous caspase activity.
To perform these studies, HeLa cells were radiolabeled with [^35S] methionine/cysteine, and proteins were immunoprecipitated using human autoantibodies. Protein A-agarose beads containing washed precipitated proteins were resuspended in buffer supporting the activity of granzyme B, and incubated in the absence or presence of added purified granzyme B. Reaction products were visualized using SDS-PAGE and fluorography. To confirm the validity of this approach, several different autoantigens known to be cleaved by granzyme B, as well as several autoantigens and non-autoantigens that are not cleaved by granzyme B, were tested. Using autoantibodies that both immunoblot and immunprecipitate, the cleavage profiles obtained using granzyme B to cleave molecules in lysates (followed by detection with immunoblotting), and after immunoprecipitation (from [^35S]methionine-labeled HeLa lysate) were compared. Identical results were obtained using these 2 methods for cleaved autoantigens (topoisomerase-1, Mi-2, RNA polymerase II large subunit, Ku-70, PARP, and NOR-90), uncleaved autoantigens (Ku-80, Ro 60k), and control substrates (β-tubulin, vinculin). […] Of note, all these additional autoantigens (with the exception of RNA polymerase I) are targeted in autoimmune myositis. However, two other tRNA synthetases (threonyl tRNA synthetase and glycyl tRNA synthetase) that are also autoantigens in autoimmune myositis, were not cleaved using this approach.

Molecule	susceptibility to cleavage by granzyme B
B1	efficiently cleaved
B2	cleaved
B3	not cleaved
B4	not cleaved
B5	efficiently cleaved

Molecular target: caspase-8 (Homo sapiens, UniProt Q14790)
Sequence (Q14790 217-374 limits assumed, species assumed): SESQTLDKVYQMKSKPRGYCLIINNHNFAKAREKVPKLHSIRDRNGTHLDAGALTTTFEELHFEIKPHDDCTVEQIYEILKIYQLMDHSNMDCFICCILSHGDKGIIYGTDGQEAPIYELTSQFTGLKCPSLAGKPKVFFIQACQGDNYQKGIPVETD
Sequence (Q14790 385-479 limits assumed, species assumed): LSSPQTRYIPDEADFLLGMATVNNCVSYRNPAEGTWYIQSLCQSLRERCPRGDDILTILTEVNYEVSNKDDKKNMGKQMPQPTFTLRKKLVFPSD
Assay: Cleavage of substrates by purified caspase-8
Assay type: biochemical
Conditions: 50 nM purified caspase-8; HeLa lysates treated with iodoacetamide, or radiolabeled IvTT substrate
Protocol: To confirm that these substrates were not cleaved by group III caspases, the substrates were incubated with 50 nM purified caspase-8. Cleavage assays were performed in HeLa cell lysates in which endogenous caspases had first been irreversibly inactivated by 1 mM iodoacetamide (4° C. for 15 min), prior to addition of 5 mM DTT to facilitate exogenous caspase-8 activity. No cleavage of topoisomerase-1, Mi-2, U1-70 kDa, PARP, Ku-70, RNA polymerase II large subunit, SRP-72, NuMA or Ki-67 occurred. Caspase-8 was indeed active in these lysates, as evidenced by robust caspase-3 cleavage products of PARP and U1-70 kDa seen when the IAA ‘poisoning’ step was omitted. Radiolabeled PMS1 and PMS2 (generated by IvTT) were also not cleaved by purified caspase-8.

Molecule	cleavage by caspase-8
B1	No cleavage
B5	not cleaved
